Where a chain is given by its changes, count along the chain named. “And” between values parts separate entries of the source, which are not always exact repeats. Equal entries are not always repeated.
B1: Fab molecule clone L1 (Fab, V domains shown)
VH: EVQLLESGGGVVQPGRSLRLSCAASGFTFSAYGMHWVRQAPGKGLEWVAGIWFDGSNQYYSDSVKGRFTVSRDNSRNTLFLQMNSLRPEDTAVYYCATEVLFGSIKGRYYLENWGQGTLVTVSS
VL: AELTQSPGTLSLSVGERATLSCRASQNIYSGYLGWYQQKPGQPPRLLIYGASNRATGIPDRFSGSGSGTDFTLTISRLESEDFAVYYCQQYGSPPYTFGQGTKVEIK
notes: also called Ll
B2: Fab molecule clone L3 (Fab, V domains shown)
VH: EVQLLESGGGVVQPGRSLRLSCAASGFTFKTYGMHWVRQAPGKGLEWVAGISFDGSNQYYADSVKGRFIVSRDNSRDTVFLQMSSLRLEDTAVYYCATEGSPFGSIKGRYYLENWGQGTLVTVSS
VL: AELTQSPATLSVSPGERASLSCRASQSVGNNLAWYQQKPGQAPRLLIYGGNTRATGTPDRFSGSGSGTEFTLTISSLQSEDFAVYFCQHYSTWPLTFGGGTKVEFK
B3: Fab molecule clone 1:7 (Fab, V domains shown)
VH: VQLLEQSGAEVKKPGSSVKVSCQVFGDTFSRYTIQWLRQAPGQGPEWMGNIIPVYNTPNYAQKFQGRLSITADDSTSTAYMELSSLRSEDTAVYFCARVVIPNAIRHTMGYYFDYWGQGTLVTVSS
VL: AELTQSPATLSLSPGERATLSCRASQSVNKYLAWYQQKPGQAPRLLIYDASNRATGIPARFSGSGSGTDFTLTISNLEPEDFAVYYCQQRSDWVTFGGGTKVEIK
B4: Fab molecule clone A8 (Fab, V domains shown)
VH: EVQLLESGPGLVKPSGTLSLTCTVSGGSIRSSHWWSWVRQPPGKGLEWIGEVFFSGSTIYNPSLNDRVFMSVDKSKDQVSLRLSSVTAADTAVYYCARSPIKMNQGRMMLDAFDIWGQGTLVIVSS
VL: AELTQSPSSLSAFVGDRVTITCRASQSISRNLNWYQQKPGTAPKVLIYAASSLQSGVPSRFSGSGSGTDFTLTITSLQPEDFATYYCQQSYTTPRTFGQGTKVEVK
B5: Fab molecule clone A12 (Fab, V domains shown)
VH: EVQLLESGSEVKKPGSSVKVSCRASGGSFRSYNFNWVRQAPGQGLEWMGGIIPMFGTANYAQKFQGRVTITADESTATGYMELSSLRSEDTAVYYCAMPYPKHCSRGSCWGWFDPWGQGTLVTVSS
VL: AELTQSPGTLSLSPGERATLSCRASQSLSSKYLAWYQQKPGQAPRLFIYDASSRATGIPDRFSGSGSGTDFTLSISRLEPEDFAVYYCQQYGTPRTFGQGTKVEIK
B6: Fab molecule clone 1:5 (Fab, V domains shown)
VH: VQLLEQSGAEVRKPGSSVKVSCKASGGTFSGHVITWVRQAPGQGLEWMGESIPIFGSANYAQNYAQKFRDRVSIIADESTSTSFIELSNLRSDDTAVYYCARDPPRYCSAGRCYPGFFQQWGQGTLVTVSS
VL: AELTQSPGTLSLSPGERATLSCRASQSVSSNYLAWYQQRPGQAPRLLIYGASSRATGIPDRFSGSGSGTDFTLTISRLEPEDFAVYYCQLYGNSRWTFGQGTKVEIK
B7: Fab molecule clone 1:11 (Fab, V domains shown)
VH: VQLLEQSGAEVKKPGSSVKVSCKASGGTFSGHVISWVRQAPGQGLEWMGGSISFFGTSNSAQKFQGRVSITADESASTAYMELSSLRSEDTAIYYCAKDPPRFCSGGNCYPGFFQQWGQGTLVTVSS
VL: B6 VL with R23G, S29R, R39K, A51V, L90Q, N93S, R95P, W96R, V104L

Columns and labels:
[1] = molecular target: T1, HCV E2 antigen (HCV genotype 1b) (hepatitis C virus genotype 1b); test: NOB assay: Fab pre-mixed with E2 1b, E2 binding to MOLT-4 cells by flow cytometry; 50% reduction titer, Exp. II
T1 construct: also called E2 1b; E2 antigen of genotype 1b

[2] = molecular target: T2, recombinant conformational HCV E2 antigen (HCV genotype 1a) (hepatitis C virus, HCV1 (genotype 1a), UniProt P26664 383-715)
[3] = molecular target: T2, recombinant conformational HCV E2 …; remark: listed apart in the source
[4] = molecular target: T2, recombinant conformational HCV E2 …; test: inhibition ELISA: coated E2 1a, soluble E2 as inhibitor
[5] = molecular target: T3, bovine serum albumin (bovine, UniProt P02769 25-607); test: ELISA, […] (100 ug/ml) […]
T3 construct: also called BSA

[6] = molecular target: T2, recombinant conformational HCV E2 …; test: ELISA, […] (100 ug/ml) […]
[7] = molecular target: recombinant HCV E1/E2 complex antigen (hepatitis C virus, HCV1, UniProt P26664 192-383; P26664 384-746); test: ELISA, […] (100 ug/ml) […]
[8] = molecular target: T3, bovine serum albumin; test: ELISA, coated BSA 5 ug/ml

T3 sequence (P02769 25-607 limits assumed): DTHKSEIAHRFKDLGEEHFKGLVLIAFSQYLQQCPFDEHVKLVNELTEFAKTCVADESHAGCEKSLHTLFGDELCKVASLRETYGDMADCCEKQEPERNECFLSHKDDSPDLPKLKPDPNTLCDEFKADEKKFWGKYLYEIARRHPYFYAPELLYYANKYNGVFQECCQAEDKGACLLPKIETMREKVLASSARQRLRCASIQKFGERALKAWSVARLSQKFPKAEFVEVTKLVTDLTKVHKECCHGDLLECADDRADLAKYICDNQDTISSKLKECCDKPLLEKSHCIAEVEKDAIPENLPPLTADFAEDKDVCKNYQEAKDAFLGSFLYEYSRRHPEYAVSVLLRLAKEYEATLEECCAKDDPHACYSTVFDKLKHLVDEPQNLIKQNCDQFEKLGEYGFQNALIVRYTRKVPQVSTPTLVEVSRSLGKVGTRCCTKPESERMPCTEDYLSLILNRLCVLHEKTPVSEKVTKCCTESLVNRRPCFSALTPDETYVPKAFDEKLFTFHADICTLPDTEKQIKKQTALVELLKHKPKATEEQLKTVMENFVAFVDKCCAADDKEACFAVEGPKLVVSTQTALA
T2 sequence (P26664 383-715): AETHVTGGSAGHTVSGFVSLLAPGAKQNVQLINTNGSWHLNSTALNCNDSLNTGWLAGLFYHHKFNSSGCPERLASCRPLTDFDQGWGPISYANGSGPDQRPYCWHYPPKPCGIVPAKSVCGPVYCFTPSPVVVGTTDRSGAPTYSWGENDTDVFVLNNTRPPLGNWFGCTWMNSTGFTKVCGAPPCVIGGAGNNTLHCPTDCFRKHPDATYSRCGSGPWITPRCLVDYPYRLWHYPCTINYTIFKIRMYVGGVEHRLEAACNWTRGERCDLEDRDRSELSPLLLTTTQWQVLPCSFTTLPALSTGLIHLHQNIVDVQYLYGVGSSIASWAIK
Sequence of recombinant HCV E1/E2 complex antigen (P26664 192-383 limits assumed, chain 1 of 2): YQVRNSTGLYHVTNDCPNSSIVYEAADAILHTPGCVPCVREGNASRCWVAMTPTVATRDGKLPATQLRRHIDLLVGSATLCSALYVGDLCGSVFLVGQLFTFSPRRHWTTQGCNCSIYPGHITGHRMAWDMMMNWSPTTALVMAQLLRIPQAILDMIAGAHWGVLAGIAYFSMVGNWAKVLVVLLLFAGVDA
Sequence of recombinant HCV E1/E2 complex antigen (P26664 384-746 limits assumed, chain 2 of 2): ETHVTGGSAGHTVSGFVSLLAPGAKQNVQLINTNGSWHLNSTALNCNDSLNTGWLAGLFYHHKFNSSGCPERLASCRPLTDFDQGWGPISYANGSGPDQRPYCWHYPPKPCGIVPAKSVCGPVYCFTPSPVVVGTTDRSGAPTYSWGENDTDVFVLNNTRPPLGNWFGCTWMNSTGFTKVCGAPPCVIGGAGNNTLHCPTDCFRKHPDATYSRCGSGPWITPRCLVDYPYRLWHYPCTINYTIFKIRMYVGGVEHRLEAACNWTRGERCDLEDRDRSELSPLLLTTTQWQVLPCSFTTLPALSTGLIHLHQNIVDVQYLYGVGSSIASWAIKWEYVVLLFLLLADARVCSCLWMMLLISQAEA

Binder | IC50 [1] [µg/mL] | Kd [2] [nM] | IC50 [3] | Ka [4] [M⁻¹] | OD405 nm (ELISA reactivity) [5] [OD405 nm] | OD405 nm (ELISA reactivity) [6] [OD405 nm] | OD405 nm (ELISA reactivity) [7] [OD405 nm] | binding result [8]
B1 | 0.03 | ~28 | 0.02 µg/mL and 0.03 µg/mL | ~4e+07 | – | – | – | –
B2 | – | ~28 | 0.02 µg/mL | ~4e+07 | 0.089 | 1.7 | 2.46 | no binding
B3 | – | ~6 | 0.02 µg/mL and 0.01 µg/mL | ~2e+08 | 0.006 | > 3 | > 3 | no binding
B4 | – | ~6 | 0.001 µg/mL | ~2e+08 | – | – | – | –
B5 | – | ~100 | 0.1 µg/mL | ~1e+07 | – | – | – | –
B6 | – | > 100 | 1.5 µg/mL and 2.5 µg/mL | < 1e+07 | – | – | – | no binding
B7 | – | ~28 | – | ~4e+07 | – | – | – | –

From patent US6747136 (KAROLINA INNOVATIONS, dated 2004)
